Laboratory results taken from PMC3299833 (Molecular Cell, 2012).
Where two headings read alike, the source gives them in different places.

B1: Recombinant PKM2 mutant R399E (enzyme)
chain: not shown
B2: HA-R399E (HA-tagged PKM2 mutant R399E expressed in SW480 cells) (enzyme)
chain: not shown

Columns and labels:
SEC [1] = biological target: the molecule itself; assay: SEC
SEC [2] = biological target: the molecule itself; assay: SEC; remark: listed apart in the source

Row | Protein | stoichiometry N (SEC [1]) | stoichiometry N (SEC [2])
1 | B1 | 2 | –
2 | B2 | – | 2
